Laboratory results: paper PMC8730730

Assays:
SEC-MALS = settings: glycan lost; control: native rshACE2
[1] = Mca-Ala-Pro-Lys(Dnp) hydrolysis, spectrofluorimetry; settings: glycan lost; control: native rshACE2

## rshACE2 (recombinant soluble human ACE2, APN01): PNGase F (deglyco-rshACE2)
SEC-MALS
  oligomerisation: no change
[1]
  enzymatic_activity, percent_of_wt: increases
